Measurements from IntAct's records for PubMed 34400613.

B1: Ras GTPase-activating protein-binding protein 2 (Homo sapiens), Q9UN86 (parent)
chain: MVMEKPSPLLVGREFVRQYYTLLNKAPEYLHRFYGRNSSYVHGGVDASGKPQEAVYGQNDIHHKVLSLNFSECHTKIRHVDAHATLSDGVVVQVMGLLSNSGQPERKFMQTFVLAPEGSVPNKFYVHNDMFRYEDEVFGDSEPELDEESEDEVEEEQEERQPSPEPVQENANSGYYEAHPVTNGIEEPLEESSHEPEPEPESETKTEELKPQVEEKNLEELEEKSTTPPPAEPVSLPQEPPKAFSWASVTSKNLPPSGTVSSSGIPPHVKAPVSQPRVEAKPEVQSQPPRVREQRPRERPGFPPRGPRPGRGDMEQNDSDNRRIIRYPDSHQLFVGNLPHDIDENELKEFFMSFGNVVELRINTKGVGGKLPNFGFVVFDDSEPVQRILIAKPIMFRGEVRLNVEEKKTRAARERETRGGGDDRRDIRRNDRGPGGPRGIVGGGMMRDRDGRGPPPRGGMAQKLGSGRGTGQMEGRFTGQRR

Variants of: B1
Settings: with ncap_sars2 N

| Variant | effect of a mutation on the interaction |
| --- | --- |
| F15A;F33A;F124A | disrupting interaction strength |
| F15A;F33A | decreasing interaction strength |
| F15A | decreasing interaction strength |
